Reference: IntAct's records for PubMed 19850925

B1: Complement factor H (Homo sapiens), P08603 (parent)
chain: MRLLAKIICLMLWAICVAEDCNELPPRRNTEILTGSWSDQTYPEGTQAIYKCRPGYRSLGNVIMVCRKGEWVALNPLRKCQKRPCGHPGDTPFGTFTLTGGNVFEYGVKAVYTCNEGYQLLGEINYRECDTDGWTNDIPICEVVKCLPVTAPENGKIVSSAMEPDREYHFGQAVRFVCNSGYKIEGDEEMHCSDDGFWSKEKPKCVEISCKSPDVINGSPISQKIIYKENERFQYKCNMGYEYSERGDAVCTESGWRPLPSCEEKSCDNPYIPNGDYSPLRIKHRTGDEITYQCRNGFYPATRGNTAKCTSTGWIPAPRCTLKPCDYPDIKHGGLYHENMRRPYFPVAVGKYYSYYCDEHFETPSGSYWDHIHCTQDGWSPAVPCLRKCYFPYLENGYNQNYGRKFVQGKSIDVACHPGYALPKAQTTVTCMENGWSPTPRCIRVKTCSKSSIDIENGFISESQYTYALKEKAKYQCKLGYVTADGETSGSITCGKDGWSAQPTCIKSCDIPVFMNARTKNDFTWFKLNDTLDYECHDGYESNTGSTTGSIVCGYNGWSDLPICYERECELPKIDVHLVPDRKKDQYKVGEVLKFSCKPGFTIVGPNSVQCYHFGLSPDLPICKEQVQSCGPPPELLNGNVKEKTKEEYGHSEVVEYYCNPRFLMKGPNKIQCVDGEWTTLPVCIVEESTCGDIPELEHGWAQLSSPPYYYGDSVEFNCSESFTMIGHRSITCIHGVWTQLPQCVAIDKLKKCKSSNLIILEEHLKNKKEFDHNSNIRYRCRGKEGWIHTVCINGRWDPEVNCSMAQIQLCPPPPQIPNSHNMTTTLNYRDGEKVSVLCQENYLIQEGEEITCKDGRWQSIPLCVEKIPCSQPPQIEHGTINSSRSSQESYAHGTKLSYTCEGGFRISEENETTCYMGKWSSPPQCEGLPCKSPPEISHGVVAHMSDSYQYGEEVTYKCFEGFGIDGPAIAKCLGEKWSHPPSCIKTDCLSLPSFENAIPMGEKKDVYKAGEQVTYTCATYYKMDGASNVTCINSRWTGRPTCRDTSCVNPPTVQNAYIVSRQMSKYPSGERVRYQCRSPYEMFGDEEVMCLNGNWTEPPQCKDSTGKCGPPPPIDNGDITSFPLSVYAPASSVEYQCQNLYQLEGNKRITCRNGQWSEPPKCLHPCVISREIMENYNIALRWTAKQKLYSRTGESVEFVCKRGYRLSSRSHTLRTTCWDGKLEYPTCAKR
partner: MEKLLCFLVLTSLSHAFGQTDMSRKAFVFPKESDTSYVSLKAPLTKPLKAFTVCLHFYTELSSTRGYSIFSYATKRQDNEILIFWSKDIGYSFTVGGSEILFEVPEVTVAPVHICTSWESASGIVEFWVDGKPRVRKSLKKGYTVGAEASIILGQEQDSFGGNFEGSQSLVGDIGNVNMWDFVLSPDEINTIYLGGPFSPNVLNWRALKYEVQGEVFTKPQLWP

Variants of: B1
Details: with crp_human CRP

Q: How did the “effect of a mutation on the interaction” value turn out when Y402H was run?
A: The value was “decreasing interaction strength”.
